This note sets out measurements from the RNAGym collection of RNA variant scans (doi:10.7554/elife.80360).

B1: HDV Ribozyme (parent)
chain: GGCCGGCAUGGUCCCAGCCUCCUCGCUGGCGCCGGCUGGGCAACAUUCCGAGGGGACCGUCCCCUCGGUAAUGGCGAAUGGGACCCA

The series covers variants of B1. Kind of series: self-cleavage, relative activity (ratio to wild type); higher = more cleavage; co-transcriptional.
With G29U A71G, the self-cleavage was determined as 0.162. In the case of G50U A56G it was 0.943; in that of C22A G81U, 0.0536. As for C13G C44A, the self-cleavage worked out at 0.0449. For G6U G68A, the self-cleavage was 0.483.

For the variant G11U C13G, the self-cleavage was determined as 0.0831.

For the variant G54U G59C, the self-cleavage was determined as 1.03. In the case of G1C A8U, the self-cleavage is 0.0978.

Regarding G2C G34A, the self-cleavage amounted to 0.0504. On to U27A U69A, for which the self-cleavage is 0.831. In the case of C19A A77C it was 0.0941; in that of G35A G52A, 0.47. For the variant G53U A71G, the self-cleavage was determined as 0.843.

G1C C21G: the self-cleavage stood at 0. As to C26U U65A, the self-cleavage amounted to 0.769. As to C24A A45G, the self-cleavage was 0.898. Regarding G2A G40C, the self-cleavage is 0.

Take C4G G25A: the self-cleavage was 0.0256. On to C22U A45U, for which the self-cleavage turned out to be 0.325.

In the case of C3G C49A, the self-cleavage worked out at 0.736. Turning to G52C A71C, the self-cleavage amounted to 0.332. Regarding U12A U47G, the self-cleavage amounted to 0.262. Turning to C66A G73C, the self-cleavage came to 0.277. For C13U C18A, the self-cleavage stood at 0.0652. In the case of G40U U60C it was 0.723; in that of G17U C49G, 0.356. In the case of G38C G40C it was 0.0405; in that of G5A C58G, 0.119; in that of C18G C61A, 0.222. For G17U C84A, the self-cleavage amounted to 0.445. In the case of G17U C84U, the self-cleavage was found to be 0.487. With C41G U46C, the self-cleavage came to 0.297. On to U27A C36U, for which the self-cleavage is 0.538. As for U46G G52C, the figure is 0.429. As for U47C U65C, the figure is 0.733; as for G10C U72C, 0.289. Take G29A A42C: the self-cleavage was found to be 0.104. Regarding A70G A77U, the self-cleavage was 0.426. C30U G67C: the self-cleavage is 0.649. Consider C33G G50U, for which the self-cleavage was determined as 0.131. As for C30G G68A, the figure is 0.126; as for C21G C24U, 0. Regarding C26U G55A, the self-cleavage was found to be 1.05. As for G29C A42U, the figure is 0.0314; as for C41A G74A, 0.692. In the case of G40C C85U, the self-cleavage was 0.0804.

Turning to C62A A77G, the self-cleavage was determined as 1.17. G6C C44U: the self-cleavage worked out at 0. As for G25U U47C, the self-cleavage stood at 0. Take C21U C57A: the self-cleavage came out at 0.233. Regarding C3G C63U, the self-cleavage was 0.589. As for C3U G38C, the self-cleavage stood at 0.122. In the case of C49A G50A it was 0.929; in that of C26U G40A, 0.885; in that of C21U G35U, 0.0804. As for C61G G80A, the figure is 0.434; as for C33A A56C, 0.339. Consider G68C A77G, for which the self-cleavage was 0.554.

Consider A56G C62G, for which the self-cleavage is 0.731.

Regarding G6C U20G, the self-cleavage stood at 0.0978. As for C24U U69C, the self-cleavage came to 0.831. As for G31U A77U, the figure is 0.0665. Take C64U G82C: the self-cleavage came to 0.208.

Turning to C18A G50U, the self-cleavage was determined as 0.197. Turning to C18A G50A, the self-cleavage turned out to be 0.23.

U12G C49U: the self-cleavage amounted to 0.776.

As to C3U C48A, the self-cleavage was found to be 0.675. Regarding C36U G82C, the self-cleavage amounted to 0.269. Regarding C14G C24A, the self-cleavage came out at 0.378. As to G34U A42C, the self-cleavage turned out to be 0.0963. For U12G G29A, the self-cleavage was 0.0978. With C18G A83C, the self-cleavage was 0.192. Take A8U G28U: the self-cleavage is 0.131. In the case of G2U C22A it was 0.035. C18A C57G: the self-cleavage turned out to be 0.208.

Turning to G52A, the self-cleavage stood at 1.02. Turning to G17C A42G, the self-cleavage was found to be 0. In the case of G17C A42C, the self-cleavage was found to be 0.0723.

With C4A G59A, the self-cleavage was found to be 0.346.

As for G1C C24A, the self-cleavage turned out to be 0.142. As for G34U C84U, the self-cleavage came to 0.261. On to C49U C64U, for which the self-cleavage is 1.05. In the case of G53U G68C, the self-cleavage is 0.277. For G54U G68C, the self-cleavage came to 0.496. With C33A C49A, the self-cleavage came to 0.364. Turning to C7G C57G, the self-cleavage is 0.208. On to G29U A42C, for which the self-cleavage amounted to 0.125. In the case of G10A C62A it was 0.673; in that of C22A C61G, 0.323; in that of A16C G40U, 0.73.

Consider A78G C84U, for which the self-cleavage was determined as 0.53.

As to U20C U46C, the self-cleavage turned out to be 0. U23G A70G: the self-cleavage came to 0.59.

On to C58A A78G, for which the self-cleavage amounted to 0.697. Regarding U65G C84U, the self-cleavage was determined as 0.704. Consider C36G G73U, for which the self-cleavage was 0.0326. As for G17C C41U, the self-cleavage amounted to 0.0449. On to G35U U47A, for which the self-cleavage is 0.332.

As for G39U A70U, the self-cleavage was found to be 0.831. As for G1A U69C, the figure is 0.104. For C3U G67C, the self-cleavage was found to be 0.772. Turning to A16C A87U, the self-cleavage was 0.615. On to C19U G25A, for which the self-cleavage was determined as 0.0252.

In the case of U9G C61G, the self-cleavage worked out at 1.02. For the variant U20A U37G, the self-cleavage is 0.277. Turning to G55A C86A, the self-cleavage was 0.978. Take C18G G35A: the self-cleavage came to 0.156.

Turning to C32A U72C, the self-cleavage worked out at 0.133.

For the variant G29A G68U, the self-cleavage turned out to be 0.0841. C48A G50C: the self-cleavage amounted to 1.11. With C13A, the self-cleavage amounted to 0.21. Take G35C G54A: the self-cleavage turned out to be 0.151.

On to G76A G81A, for which the self-cleavage was determined as 0.332. With C61G C64G, the self-cleavage came out at 0.527. G35C G74A: the self-cleavage is 0.0779. As for C13U A56G, the self-cleavage worked out at 0.573. With G39C G82C, the self-cleavage was determined as 0.0997. Turning to G53A C63G, the self-cleavage was determined as 1.01. Regarding A42U A51G, the self-cleavage was 0.508. For the variant G1U A16G, the self-cleavage is 0.256. Regarding A70C A78C, the self-cleavage was 0.208.

Regarding G39C C48U, the self-cleavage was found to be 0.405. Regarding C26A A78U, the self-cleavage stood at 0.269. For the variant U27A C63U, the self-cleavage is 0.813.

Consider A45G C49G, for which the self-cleavage is 0.831. As for G35A G76C, the figure is 0.708; as for U20C U47C, 0.262; as for C7G U60G, 0.256. As to U79C C84G, the self-cleavage came out at 0.214. In the case of G11U G39A, the self-cleavage was 0.128.

C7G C61U: the self-cleavage is 0.237. As to G5C C18G, the self-cleavage came out at 0.262. In the case of G11U C63A, the self-cleavage was found to be 0.228. With A56C C62U, the self-cleavage worked out at 1.02. G68U A71U: the self-cleavage was 1.01. Consider G50U C66U, for which the self-cleavage came out at 1.09. C64G A77U: the self-cleavage is 0.506. C57U A71U: the self-cleavage stood at 1.08. For the variant C21G G59U, the self-cleavage was 0.0941. C4U G73U: the self-cleavage came out at 0.138. As to A8U G38A, the self-cleavage turned out to be 0.141.

On to G11C C18A, for which the self-cleavage turned out to be 0.0804. As for C33A G54C, the self-cleavage amounted to 0.222. G34U G80U: the self-cleavage was found to be 0.128. In the case of U37G A77C it was 0.158; in that of U72A C85A, 0.399; in that of C30U G34U, 0.135. For G5C A83G, the self-cleavage was 0.0519. For G5C A45G, the self-cleavage turned out to be 0.0875. G67A G73A: the self-cleavage stood at 0.492. Take A8G A70U: the self-cleavage was found to be 0.831. In the case of C75A A87U it was 0.111; in that of C18G A70U, 0.111; in that of C85G A87G, 0.919. For U69A G73C, the self-cleavage came to 0.264. As for G35U G50A, the figure is 0.472; as for U37C A70G, 1.23; as for A16G G68U, 1.01. In the case of C66A G82A it was 0.356. With C75G C85G, the self-cleavage was 0.0923. For G11A A77U, the self-cleavage turned out to be 0.109. Take G35C C62A: the self-cleavage turned out to be 0.277. Take C61G G81U: the self-cleavage turned out to be 0.358. Regarding G5A C64U, the self-cleavage was determined as 0.359. Turning to C15U A71G, the self-cleavage came to 1.14. Regarding G74A C75A, the self-cleavage came out at 0.0528. Turning to C22A C33G, the self-cleavage was found to be 0.213.
